# Reference: IntAct's records for PubMed 20111005
# B1: CCAAT/enhancer-binding protein beta (Gallus gallus (Chicken)), Q05826 (parent)
# chain: MQRLVAWDAACLPIQPPAFKSMEVANFYYEADCLAALNKLHPRAAGGRSMTELTVGDHERAIDFSPYLDPLAASQQPAQPPPPAAAAGGNFEPACSSGGQDFLSDLFAEDYKGSGGGKKPDYTYISLTRHGHPCGSQSHKPGVLPGCFPPQIVETKVEPVFETLDSCKGPRKEEGGAGPGPGGMSSPYGSTVRSYLGYQSVPSGSSGNLSTSSSSSPPGTPNPSESSKSAAGAGGYSGPPAGKNKPKKCVDKHSDEYKLRRERNNIAVRKSRDKAKMRNLETQHKVLELTAENERLQKKVEQLSRELSTLRNLFKQLPEPLLASSPRC
# Variants of: B1
# Conditions: with smca2_human SMARCA2, P51531
# Sequence of smca2_human SMARCA2, P51531 (P51531 whole entry): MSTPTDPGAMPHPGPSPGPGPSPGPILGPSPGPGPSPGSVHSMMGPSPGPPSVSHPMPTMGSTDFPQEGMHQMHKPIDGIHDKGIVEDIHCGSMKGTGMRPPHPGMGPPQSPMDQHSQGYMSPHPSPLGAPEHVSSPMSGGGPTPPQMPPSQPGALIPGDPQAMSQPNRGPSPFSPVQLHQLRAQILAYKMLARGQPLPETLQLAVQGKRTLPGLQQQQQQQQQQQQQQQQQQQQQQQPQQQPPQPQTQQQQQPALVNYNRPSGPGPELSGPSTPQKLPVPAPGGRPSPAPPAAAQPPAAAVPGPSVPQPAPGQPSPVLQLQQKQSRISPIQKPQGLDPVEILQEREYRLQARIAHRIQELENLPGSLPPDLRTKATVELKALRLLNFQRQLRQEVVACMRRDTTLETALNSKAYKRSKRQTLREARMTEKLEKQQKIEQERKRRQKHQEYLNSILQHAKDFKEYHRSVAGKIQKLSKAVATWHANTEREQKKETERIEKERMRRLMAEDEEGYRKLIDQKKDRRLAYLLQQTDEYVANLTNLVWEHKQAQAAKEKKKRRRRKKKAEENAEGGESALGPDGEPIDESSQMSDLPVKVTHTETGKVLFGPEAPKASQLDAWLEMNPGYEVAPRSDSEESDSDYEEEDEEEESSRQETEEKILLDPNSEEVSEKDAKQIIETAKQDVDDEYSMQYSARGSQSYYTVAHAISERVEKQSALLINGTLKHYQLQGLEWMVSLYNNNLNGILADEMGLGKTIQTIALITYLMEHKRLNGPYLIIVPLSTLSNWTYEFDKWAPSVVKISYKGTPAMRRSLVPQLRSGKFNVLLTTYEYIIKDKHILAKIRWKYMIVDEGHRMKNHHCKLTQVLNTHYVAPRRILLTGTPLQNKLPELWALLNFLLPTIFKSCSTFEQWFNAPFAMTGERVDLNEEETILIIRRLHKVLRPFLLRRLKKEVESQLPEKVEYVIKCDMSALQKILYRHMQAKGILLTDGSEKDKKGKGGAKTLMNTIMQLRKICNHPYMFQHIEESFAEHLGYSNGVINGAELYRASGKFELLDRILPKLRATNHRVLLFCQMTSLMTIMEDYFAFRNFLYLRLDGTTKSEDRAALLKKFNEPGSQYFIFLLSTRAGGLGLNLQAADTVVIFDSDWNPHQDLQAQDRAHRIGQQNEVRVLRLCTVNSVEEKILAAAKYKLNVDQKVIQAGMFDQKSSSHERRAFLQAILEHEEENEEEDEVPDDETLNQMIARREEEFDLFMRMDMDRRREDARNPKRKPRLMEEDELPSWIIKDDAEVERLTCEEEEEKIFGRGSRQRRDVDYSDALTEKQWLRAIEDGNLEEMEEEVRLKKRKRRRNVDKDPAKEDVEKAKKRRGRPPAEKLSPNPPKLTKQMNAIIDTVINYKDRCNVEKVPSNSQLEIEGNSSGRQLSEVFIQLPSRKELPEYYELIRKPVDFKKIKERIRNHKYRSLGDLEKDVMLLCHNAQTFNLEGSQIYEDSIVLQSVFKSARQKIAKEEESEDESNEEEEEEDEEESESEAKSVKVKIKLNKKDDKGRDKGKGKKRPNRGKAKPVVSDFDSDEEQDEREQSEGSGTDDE
row,effect of a mutation on the interaction,Variant
1,decreasing interaction,R3L
